Measured values taken from publication PMC6989608.

Target: Recombinant PP99 gp55 tail spike protein (Pectobacterium phage PP99)
Assay: SEC; gel-filtration of purified PP99 gp55 on a calibrated Superdex 200 10 x 300 column; oligomeric state

Recombinant PP99 gp55 tail spike protein (natural protein)
stoichiometry N: 3
